# Experiment: soluble on expression in E. coli; label from the status in PepcDB or PDB records
row,Sequence,soluble on expression in E. coli
1,MGSDKIHHHHHHMSQFVVDSSFWSLFPDAKIGVLLLKDYKTPAQSPDELVKLLEESNGIAQKFLTEDTFSENEVIRTYRQAYQKFKTKKGARSSIEALLKRSTSDRPVTTISPLVDIYNAASLRFGLPCGAEDLDTFVGNLQLTVTEGGDEFYLIGDETNNPTLPGEVCYKDDKGAVCRCFNWRDGERTMITDETKNAFLVMELVNSDRVEDLENALDFISQQAETFLGVVPEKYLLDCDRPGIAL,not soluble
2,MGSDKIHHHHHHMSQNVYQFIDLQRVDPPKKPLKIRKIEFVEIYEPFSEGQAKAQADRCLSCGNPYCEWKCPVHNYIPNWLKLANEGRIFEAAELSHQTNTLPEVCGRVCPQDRLCEGSCTLNDEFGAVTIGNIERYINDKAFEMGWRPDLSDVKPTGKTVAIIGAGPAGLACADVLTRNGVKAVVFDRHPEIGGLLTFGIPAFKLEKEVMTRRREIFTGMGIEFKLNTEVGRDVQLDDLLKEYDAVFLGVGTYQSMRGGLDNEDAPGVYDALPFLIANTKQIMGFGETADEPYVSMEGKRVVVLGGGDTAMDCVRTSVRQNAAHVICAYRRDEENMPGSKREVKNAREEGVEFQFNVQPLGVEVNANGKVCGVKMARTEMGQPDAKGRRRAEIVPGSEHVVPADAVVMAFGFRPHSMEWLAKHSVEMDSQGRIIAPEGSENAFQTSNPKIFAGGDIVRGSDLVVTAIAEGRKAADGILNYLEV,not soluble
3,MGSDKIHHHHHHMSQSIPEPHWHQTPQEFLASWSTSRGNLRRFFEEHALPPIDARTQREAGEAAAELAASELFGIKLDEYTSGLDSVSGSFEAAGAQHVTTANPEIPQDIGAAAFFDIDNTLIQGSSLVVFAMGLAKKKYFKLNEILPVAWKQIKFRVTGNENAHDVAEGRQQALEFIKGRRVDELVALCEEIVDNNMSEKLWPGTKQLADQHIADGQQVWLVSATPVQLAQALAKRLGFTGALGTVAEVKDGVFTGRLVGDILHGPGKLHAVAALATIERLDLSRCTAYSDSINDVPMLSMVGTAVAINPDRPLAKVAKQHGWAVRDYRSLRKAIRTFGIPALVTAAFSFGGWKAWRR,not soluble
4,MGSDKIHHHHHHMSREILRVENLVKHFPIRAGVFKRIVGWVKAVDGVSFSINEGETFGLVGESGCGKTTIGMTLLRLYEPTSGRIIVDNEDTTYYFMPRSKAKKYIKQTYLSRFVNMKESDVEKLEGVDREYARIFFEEAKGSPKKFMSILLDDLPEKRKKFRREMQIVFQDPYSSLNPRLRVKSIVGEGIVTHRIARGKEVEKRIKEILEDVGIPSAYVYRFPHEFSGGQRQRIGIARALALEPKLVVADEAVAALDVSIRSQIINLMEDLQREHKLTYIFISHDLAVVKHISDRIGVMYLGKMVELAPKKDLFEKPLHPYTVALMSAIPVPDPTKKRERIILKGDVPSPINPPSGCRFHTRCPIAKEICSKEEPAFREVEEGHFVACHFPGELR,not soluble
5,MGSDKIHHHHHHMSRHQNIPALSDVSSTNFSNIRLIATDMDGTLTRRGKFTTPLLQALEDLAAVDIKVLIVTGRSAGWVSGLSSLMPVAGAIAENGGLYFPPGNHKPVVLTPVSDLAKHRQHLATTFENLQTKFPQIQESADNRFRVTDWTFDVADLNQDELQTLDSLCQQMGWGFTYSNVQCHIKPQGQDKAVGLLQVLREYLPQYSPEQIVTVGDSPNDESLFERRYFPVSVGVANVLEYMNQLKYHPAYITNAAEGEGFCELSSYILKSLHIPS,not soluble
6,MGSDKIHHHHHHMSRISEEIENLTVELVKVPSVNGTEGEGNIGNKILSYLKEIDYFKEHEEYAFRIPLKNDKLGRGNVFALIRGEKGQSNRTIILHGHMDTVAVDDYGSLKDYAFDPDILQKKLKEIELPEEVREDLDSGDWMFGRGASDMKSGDAVHLVVLKELSKRVKDISGNILFMSNPVEENEHNGIREALDTLEKLKEKYSLEYTLAINNDYICPMYKGDNTRYLYTGTVGKLLPAFYFVGKETHVGQCFEGINADVIASEVINEIDLNVDLCDEYNGEYTLPPSVLKFKDLKESYNVQTPFSSFAYFNYTVHSESPKQASEKLKKAAKRAFERVIKRNDDRYKKYCEMTNQKYEPLNFQAKVITYTQLYTLAKARFSGDLDKEIKSYEQRLVDNYVDIREISLRVVDKVFNIWGEKKPCIVMFFAPPYCPHNTLNVKNEKEKEIINKIKECAQQLKEKEGINEEFKVMQFFPSLSDSSYLKIDDDSEGIESLTSNFPGWDRVYGVPVQKIKDLNIPAINYGCYGKDAHKWTERVYKPYSFEVLPKLIMLTIEKFL,not soluble
7,MGSDKIHHHHHHMSRLLRSPQTGAGKLFSAASSENFSKQNLIDAVIKEARRKVMEAEFQKKFMQSWSRYFPGAELPIGFYYTDSAETKFMAKPPKRHRCIIGDLAKVRKGKPQCFDNNAIGCFGGKRYLGFESKLTPDFEYFLSCGIPGKIEGERYKKSPELVKEHLKHQQPLKAPGNYIIFKRWDQMENADIPSVVIFFAAPDVLSGLFTLANFDETHPHGVIAPFGAGCASIVDYPYKELNSPDPRSVLGMFDVSARPCVPSNVLTFAVPWPKFVRMVGNMDESFLITRSWNKVKTRIKKEHAKSNDK,not soluble
8,MGSDKIHHHHHHMSRPRIHPLQALFGAHEHRPDLPVCDHYAGVEPRMRKALALQADMADTALFDVTLDLEDGAPVGGEPEHARLAAELVSSAANRHGRVGVRVHPYPHPSFADDVRSLLAGAGERLAYLMIPKAQGVEELRDAIAAIEATRREQGLARAVPVHALVETHGALRDVQAIAALPAIESLSFGLMDFVSAHHGAIPAFGMSLAGQFSHPLVLRAKLEISAACHAAGKLPSHCVVTEYSDTQAIAQAATRASRELGYARMWSIHPNQIRPIVEAFAPVPAEIEAALDILLAAQAADWAPIAHRGLLQDRASYRYHWHVLERAARTGRSLPDTARSAFFATAAA,not soluble
9,MGSDKIHHHHHHMSSNRCDDCHPAGIDDANRQPRLETAAKGGGEPAPSTANLPDAAHLPGGRIRIGISSCLLGNPVRFDGGHKFDPWVVNVLGAYLDFVPVCPEVECGMGIPREALRLVGDPSAPRLVTVKHGEDWTDRMRAWAERRVAELEGEGLCGYIFKRASPSSGMERVKVYPEFDPATGKSGGVPVQKGVGMFARAFIERFPLLPVEEEGRLNDPDLRENFIERLFVMRRWRQLLDDGLDTGGLVAFHTRHKLLMLAHSPQHYRTMGKLVAQAATYPRDELREAYQRLLMEGLRLRATPAKHVNVLQHIMGYFRKQLTPDEKQEMLEQIDLYRRALVPLVVPVTLLNHYVRKYGEKYLAGQFYLNPHPVELKLRNHV,not soluble
10,MGSDKIHHHHHHMSTDNLALNIREKAMEAGFDHCGIVKIDALADYVSRLEERAAAFPRSKPFYDFLSKLGTPQAAHEWGKSVIVCAMRYGKYRIPNRADRHIGKLYLYGGYRQPAYSQEYAGMAGFEAFLAAEGIRFAKDVFGIAPARLCAAQANLGVIRNNNFLYTEHGSWVWLETWLIDRELEYRESPNTLPSCPPGCSKCIDACPTGALKAPFLTDMGTCIARLTYSPSGEAPEPLRESMGTWLYGCDECQNACPMNKGRWEEKEEYPRLEELSRHISLEKIAEMDEHAVSDILSPMFWIIGKEKLWMWKCNVIRAMVNGKDPGHHSTIRKLCDDGNENVRRTAEWACRQLGI,not soluble
11,MGSDKIHHHHHHMSTKHAIAAAHFLENKENEAWHDHTLWMVRTKRDKMSHSLPEWERLRELASEIKLYSNSHLDTLLEEFEKNAIANGAIVHWAKDAEEHNEIVLRILRQHDARNLIKSKSMLTEECHMNEFLMSKGIDVVESDLGERILQLMHLAPSHIVMPAIHIKREQISEMMEREMGTEKGNIDPTYLTHAARKNLREKFLHADVAMTGANFAVASTGEIVVCTNEGNADMGTSFPKVHIATMGMEKIVPNLEALGVFTRLLARSGTGQPITSYTSHYRRPPEGQEFHIIIVDNGRSDILAKPDHIRTLNCIRCGECMNTCPVYRRSGGYSYTYFIPGPIGINLGMLRNPEEYSDNVSACSLCLSCSNVCPVKIDLGEQIYRWRQDLDKIGKASKEKKVMSFGMKFLMERSGLFNTALKFAPVVNHLPRFMVYNGLNAWGKGRELPAFAKESFNDMWKNNKVR,not soluble
12,MGSDKIHHHHHHMSTPCILCVAITGSLPTKDNNPAVPITISEQIESTHEAFEAGATICHAHVRNDDQTPSSDPEKFERLKEGLEKHCPGMIIQFSTGGRSGAGKARGGMLPLAPDMASLSVGSNNFPTRVYENPPDLVDWLAGEMRTHQVTPEVEAFDLSHILNAIALHKSGALYGKLYVQFVMGVKNAMPADKEVFDFYVDLVKRRAPDANWCAAGIGANQLVVNEWAIAAGGHTRAGLEDNVRLDRNTLAPSNAALIRRAAELCEKYERPVATWQQAREILDVPLRA,not soluble
13,MGSDKIHHHHHHMSTVDPVEQLLANGLKNLWYPICPVGFIEDKPVSLRRLGYKLAVWRDTDGTLHALEDHCPHRGAPLSRGVNLGDRLQCPYHGVEVRCDGVTARVPGSPGCKLEGSQATRFFHITEAAGAVWLYNSAGNVEEAPPLVLPEQLTDPEFSHFLCYTEWRGDYRYVLDNVMDPMHGTYLHKQSHSMSEGESQARFVTRDTDTGFIFEKDGQRGVNFDWTEWADTGMHWMRLEIPYPKTGGPGGNFHIVGSYTPIARDLCAVFHWRCRPLTGWQRDTWRFLYRNRLEARHWAVLEQDREMLEFMEPDANQRENLYQHDLGLVRLRRHLKNLAKAQLELIEARQL,not soluble
14,MGSDKIHHHHHHMSTVIDSNIFNTLVSNTFYSCPLGGAIYDTEGNLIDLNKAMFAHFSLADKHDFIIEHLFNNIVLTDSLKSSLRKGDAIICEEPVTFKVEPIYTDEQGLSGYTLWLTQQGEKETDRENKLLMGQLNESRILMRQALEDGKLAAYSFSFDRFSTCDKRHCNRCFQFYGTTNTLLDKNRFICRALSSVRKPEDSLDFFYLFNKIRDEKLSSHNVTFHLRNQDGTYKMYEISGKSMDIDESGTPHVIIGSIIEKENDELAIADHQKSKDLSLLKSTFLANMTHEIRTPLNAIVGFSDMLGLEDDPEMREQYISMIKENNTALLELINDTLEMSRIESNTINWSYEDVNPLAIMHDVYEYASPRISKNVRLILDDSPNVSLHTDKHKLMLILKKLLSNALRYTEKGEIHFGYQSLYPVSVQFYVSDTGNGIPKDKLGHIFERFVQLNEFQPGTGLGLSICKGLVTAMGGTIWVNSEEGKGSTFSFKLPITPPDTIS,not soluble
15,MGSDKIHHHHHHMSVGRIGFIGTGSITEAIVTGLATCADVPTEVWLSPRNAQIADRLAQAYPMVQVAGENQEVVDRCDVVCLAVRPQVAESVLQALRFSGRHHVISFIATYGLDKLRTLIAPAKTLVRAAPLPTVAEHLCNTLVFPADDIARSLFTQLGGAIEVGSEEAFDVLFSATATMGSYFALLHNQARWLEQHGSTYSEARDYLASLHFGLASVARKTQTRFDELSKEFTTAGGLNEQVLDALGAHRVFNAFDDAFDQVLHRIGGTVSQRNE,not soluble
16,MGSDKIHHHHHHMSVPQRPHQFVLTLSCPSAAGQVAAVVGLLDRHRCYVDELTVFDDDLSARFFVRCVFHATDDADALRVDALRREFEPIAERFRMQWAIHDVAARPKVLIMVSKLEHCLADLLFRWKMGELKMDIVGIVSNHPDFAPLAAQHGLPFRHFPITADTKAQQEAQWLDVFETSGAELVILARYMQVLSPEASARLANRAINIHHSFLPGFKGAKPYHQAHARGVKLIGATAHFVTDDLDEGPIIEQVVERVDHSYRPEQLLAVGRDVECITLARAVKAFIERRVFLNGDRTVVFQ,not soluble
17,MGSDKIHHHHHHMTAAAATTAGATGGASRRPADEAIAADARALSEQLKAMRDRLFAPTAMKTLRSFTSGEAAKLIGVSDGYLRQLSLAGEGPQPDTGAGGRRSYSLSDINALRRHLAEQAIAKGNGAKARGYLKWRDAARSEHLQVISVTNFKGGSGKTTSSVHLAQYLALTGHRVLAVDLDPQASLSALFGYQPELDLTGNDTLYGAIRYDAEARPLKDIIRKTYFDGLDLVPGNLELQEFEHTTPQALSARQSGADAGPLFFARVQAALASVADDYDVVVIDCPPQLGYLTLSALCASTSVIVTVHPQMLDVASMNQFLYMTSDLLSVVRDAGGELNFDFLRYLVTRFEPNDGPQAQIVGFMRSLFGDRVLTSAMVKSTAISDAGLTKQTLYEVGRENFTRATYDRAIESLNAVNGEIEALIHAAWGR,not soluble
